Bridge positions count the residues as written; N and C are the ends. Square brackets hold non-standard residues; d marks the D form. Ends that are not written are not given here. * marks the point of attachment. Acetyl(2-(4-imidazolyl)) = O=C(Cc1c[nH]cn1)*; Aib = CC(C)(N)C(=O)O
T1: human GIP receptor (human, UniProt P48546 22-466)
T1 sequence (looked up): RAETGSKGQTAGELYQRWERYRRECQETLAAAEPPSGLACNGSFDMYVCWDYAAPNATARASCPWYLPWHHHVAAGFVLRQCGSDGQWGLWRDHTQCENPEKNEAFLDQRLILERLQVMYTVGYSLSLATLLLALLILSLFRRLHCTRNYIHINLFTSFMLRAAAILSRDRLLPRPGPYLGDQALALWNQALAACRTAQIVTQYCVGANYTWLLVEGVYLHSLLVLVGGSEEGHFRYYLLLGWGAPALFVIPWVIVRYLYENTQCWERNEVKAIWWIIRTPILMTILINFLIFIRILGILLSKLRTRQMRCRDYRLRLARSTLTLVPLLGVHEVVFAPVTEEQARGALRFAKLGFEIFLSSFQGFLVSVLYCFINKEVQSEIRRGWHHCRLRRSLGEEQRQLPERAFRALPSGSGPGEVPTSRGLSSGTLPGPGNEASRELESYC


Tests used:
Experiment in all cases: cell-based or functional assay
human GLP-1 receptor = human GLP-1 receptor (human, UniProt P43220 24-463)
human GCG receptor = human GCG receptor (human, UniProt P47871 26-477)
human GCG receptor, sequence (P47871 26-477): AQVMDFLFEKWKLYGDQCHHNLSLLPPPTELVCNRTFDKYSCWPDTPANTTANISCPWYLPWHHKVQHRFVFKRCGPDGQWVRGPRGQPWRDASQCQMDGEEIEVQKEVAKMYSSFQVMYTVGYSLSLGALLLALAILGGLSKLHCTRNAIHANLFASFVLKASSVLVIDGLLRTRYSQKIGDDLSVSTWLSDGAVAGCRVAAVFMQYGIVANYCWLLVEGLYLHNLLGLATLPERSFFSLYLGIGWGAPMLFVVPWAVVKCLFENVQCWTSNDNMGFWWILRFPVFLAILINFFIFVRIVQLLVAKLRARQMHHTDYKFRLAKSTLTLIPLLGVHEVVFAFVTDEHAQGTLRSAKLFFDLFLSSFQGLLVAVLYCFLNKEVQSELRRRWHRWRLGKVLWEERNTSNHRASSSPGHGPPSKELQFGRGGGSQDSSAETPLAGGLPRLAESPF

human GIP receptor = target: T1, human GIP receptor

| Binder | In vitro activity compared with native peptide (%) vs GLP-1 (cAMP EC50) (human GLP-1 receptor) [%] | In vitro activity compared with native peptide (%) vs Glucagon (cAMP EC50) (human GCG receptor) [%] | In vitro activity compared with native peptide (%) vs GIP (cAMP EC50) (human GIP receptor) [%] |
| --- | --- | --- | --- |
| H[Aib]QGTFTSDYSIAMDEIHQKDFVNWLLAQC (bridge 16-20) [triple agonist of SEQ ID NO: 55] | 27.1 | 0.7 | 2.4 |
| H[Aib]QGTFTSDYSIAMDEIHQKDFVNWLLNTC (bridge 16-20) [triple agonist of SEQ ID NO: 57] | 11.7 | < 0.1 | 0.3 |
| H[Aib]QGTFTSDYSKYLDEKRQKEFVNWLLAQC (bridge (positions not given here); also: ring formation between two underlined residues) [triple agonist of SEQ ID NO: 56] | 57.9 | 4.9 | 0.8 |
| {Acetyl(2-(4-imidazolyl))}-[Aib]QGTFTSDKSKYLDERAAQDFVQWLLDGGPSSGAPPPS [triple agonist of SEQ ID NO: 62] | 5.2 | < 0.1 | < 0.1 |
| Y[Aib]QGTFTSDYSKYLDERACKDFVQWLLDHHPSSGQPPPS (bridge 16-20) [triple agonist of SEQ ID NO: 71] | 90.1 | 12.7 | 94.7 |
| Y[Aib]QGTFTSDYSKYLDECAAKEFVQWLLDHHPSSGQPPPS (bridge 16-20) [triple agonist of SEQ ID NO: 64] | 64.6 | 60.1 | 92.9 |
| Y[Aib]QGTFTSDYSKCLDERAAKEFVQWLLDHHPSSGQPPPS (bridge 16-20) [triple agonist of SEQ ID NO: 69] | 24.3 | 9.6 | 62.8 |
| {Acetyl(2-(4-imidazolyl))}-[Aib]QGTFTSDYSIAMDEKHCKDFVNWLLNTK (bridge 15-19) [triple agonist of SEQ ID NO: 60] | 106 | < 0.1 | 8.2 |
| {Acetyl(2-(4-imidazolyl))}-[Aib]QGTFTSDYSIAMDEIACKDFVNWLLNTK (bridge 15-19) [triple agonist of SEQ ID NO: 61] | 59.8 | < 0.1 | 2.8 |
| Y[Aib]QGTFTSDYSKCLDEKRAKDFVQWLLDHHPSSGQPPPS (bridge 16-20) [triple agonist of SEQ ID NO: 70] | 15.1 | 71.3 | 64.4 |
| H[Aib]QGTFTSDYSKCLDEKRAKEFVQWLLDHHPSSGQPPPS (bridge 16-20) [triple agonist of SEQ ID NO: 65] | 95.4 | 25.2 | 11.6 |
| {Acetyl(2-(4-imidazolyl))}-[Aib]QGTFTSDCSKYLDERAAQDFVQWLLDGGPSSGAPPPS [triple agonist of SEQ ID NO: 63] | 15.3 | < 0.1 | < 0.1 |
| H[Aib]QGTFTSDVSKYLDGQAAKEFVAWLLKGC [triple agonist of SEQ ID NO: 7] | 13.7 | < 0.1 | < 0.1 |
| {Acetyl(2-(4-imidazolyl))}-[Aib]QGTFTSDYSICMDEKHQKDFVNWLLNTK (bridge 15-19) [triple agonist of SEQ ID NO: 59] | 40.3 | < 0.1 | 4 |
| Y[Aib]QGTFTSDYSKYLDECRAKDFVQWLLDHHPSSGQPPPS (bridge 16-20) [triple agonist of SEQ ID NO: 66] | 15.8 | 172 | 17.2 |
| Y[Aib]QGTFTSDYSKCLDEKAAKEFVQWLLDHHPSSGQPPPS (bridge 16-20) [triple agonist of SEQ ID NO: 68] | 27.9 | 8.8 | 107 |
| H[Aib]EGTFTSDYSIAMDEIHQKDFVDWLLAEC (bridge 16-20) [triple agonist of SEQ ID NO: 54] | 30.6 | 1.4 | 0.1 |
| Y[Aib]QGTFTSDYSKYLDECAAKDFVQWLLDHHPSSGQPPPS (bridge (positions not given here); ends not checked; also: ring formation between two underlined residues) [triple agonist of SEQ ID NO: 67] | 28.5 | 46.2 | 39.8 |
| H[Aib]QGTFTSDVSSYLDGQAAKEFVAWLLKGC [triple agonist of SEQ ID NO: 6] | 17 | < 0.1 | < 0.1 |
| Y[Aib]QGTFTSDCSKYLDERAAKDFVQWLLDHHPSSGQPPPS (bridge 16-20) [triple agonist of SEQ ID NO: 72] | 11.5 | 1 | 1.6 |
| H[Aib]QGTFTSDYSKYLDEKRQKEFVQWLLNTKC (bridge 16-20) [triple agonist of SEQ ID NO: 58] | 39.1 | 2.6 | 0.2 |

From patent publication US20240293512A1 (HANMI PHARM, published 2024)
